Results as given in publication PMC5156306.

Biological target: WT CCR5 (5555), HA-tagged, on transfected HEK293T cells (UniProt P51681)
Assay: competition assay, flow cytometry on cells
Settings: DyLight488-LukE 595 nM, LukD DN 565 nM, read off a plot
[1] = 74.5 nM unlabeled LukE variant, parent: est. 13
[2] = 149 nM unlabeled LukE variant, parent: est. 11
[3] = 298 nM unlabeled LukE variant, parent: est. 10
[4] = 596 nM unlabeled LukE variant, parent: est. 9.2

Substance | response [1] [MFI] | response [2] [MFI] | response [3] [MFI] | response [4] [MFI]
WT LukE LukE/LukS^DR1 (DR1, residues 57 to 75, replaced by the corresponding region of LukS-PV) | 19 | 18 | 15 | 14
WT LukE LukE/LukS^DR2 (DR2, residues 140 to 150, replaced by the corresponding region of LukS-PV) | 13 | 11 | 9.8 | 9
WT LukE LukE/LukS^DR3 (DR3, residues 164 to 178, replaced by the corresponding region of LukS-PV) | 15 | 12 | 11 | 9.7
WT LukE LukE/LukS^DR4 (DR4, residues 182 to 196, replaced by the corresponding region of LukS-PV) | 12 | 9.9 | 9.3 | 8.3
